PMC6548343 (Journal of Molecular Cell Biology, 2018)
“And” between values parts separate entries of the source, which are not always exact repeats. Equal entries are not always repeated.

Molecular target: the molecule itself
Assay: EM classification and 3D reconstruction; INO80 sub-complexes and separated Rvb1/Rvb2 rings in the Mono Q fraction of the Ino80-2×FLAG purification

B1: Rvb1/Rvb2 (complex, S. cerevisiae)
chain 1: MVAISEVKENPGVNSSNSGAVTRTAAHTHIKGLGLDESGVAKRVEGGFVGQIEAREACGVIVDLIKAKKMSGRAILLAGGPSTGKTALALAISQELGPKVPFCPLVGSELYSVEVKKTETLMENFRRAIGLRIKETKEVYEGEVTELTPEDAENPLGGYGKTISHVIVGLKSAKGTKTLRLDPTIYESIQREKVSIGDVIYIEANTGAVKRVGRSDAYATEFDLETEEYVPLPKGEVHKKKEIVQDVTLHDLDVANARPQGGQDVISMMGQLLKPKKTEITEKLRQEVNKVVAKYIDQGVAELIPGVLFIDEVNMLDIEIFTYLNKALESNIAPVVVLASNRGMTTVRGTEDVISPHGVPPDLIDRLLIVRTLPYDKDEIRTIIERRATVERLQVESSALDLLATMGTETSLRYALQLLAPCGILAQTSNRKEIVVNDVNEAKLLFLDAKRSTKILETSANYL
chain 2: MSIQTSDPNETSDLKSLSLIAAHSHITGLGLDENLQPRPTSEGMVGQLQARRAAGVILKMVQNGTIAGRAVLVAGPPSTGKTALAMGVSQSLGKDVPFTAIAGSEIFSLELSKTEALTQAFRKSIGIKIKEETELIEGEVVEIQIDRSITGGHKQGKLTIKTTDMETIYELGNKMIDGLTKEKVLAGDVISIDKASGKITKLGRSFARSRDYDAMGADTRFVQCPEGELQKRKTVVHTVSLHEIDVINSRTQGFLALFTGDTGEIRSEVRDQINTKVAEWKEEGKAEIVPGVLFIDEVHMLDIECFSFINRALEDEFAPIVMMATNRGVSKTRGTNYKSPHGLPLDLLDRSIIITTKSYNEQEIKTILSIRAQEEEVELSSDALDLLTKTGVETSLRYSSNLISVAQQIAMKRKNNTVEVEDVKRAYLLFLDSARSVKYVQENESQYIDDQGNVQISIAKSADPDAMDTTE
notes: Rvb1, AAA+ ATPase subunit, S. cerevisiae; Rvb2, AAA+ ATPase subunit, S. cerevisiae; Seen as a hexameric ring in INO80 and as free hexamers and dodecamers; The fitted models PDB 2XSZ and 5OAF are of the human proteins; also called Rvb1/Rvb2 hexameric ring; Rvb1-Rvb2 ring; source: endogenous, S. cerevisiae, co-purified with tagged Ino80 (FLAG resin, Mono Q)
  stoichiometry N: 12 and 6
